assay: soluble fraction after stress (log2 fold change); higher = more stays soluble; pooled small domains, quantitative proteomics; conditions: stress: pH 4
Procedure, shortened: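 Following acid stress at pH 4, the amount of each small protein domain still soluble was measured in pooled custom libraries by high-throughput quantitative proteomics. Its fold change, on a log2 scale, is higher when more of the domain stayed soluble. This fold change is taken as a measure of aggregation propensity.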

Sequence | soluble fraction (log2)
HMDIHSEEYILGQNIRKYRLRLGWSQADLSNAVDIDRADISKYENGAKGIMSSTLLRKFAKALGVSMDALM | 0.0187
HMDILPRMVASEMRAVGVPPERMTREEKGTVIRNLMNAGIHQMKGAVVEIARQLHLSEPTVYRYIKREKG | -0.177
HMDINMELGKNIRRLRKLNNLTQQSLANQMNRSKTLIALWEKGERDPSSIDLKRLSEIFNVRADDIIG | -0.00935
HMDIRMLLSDREEEIMILLSKGLSISEAANRMQIGQASAATYLNRARRKLKAETVRQAVAIWTGD | -0.422
HMDISAFDTEFIISKFGGIRPMAQKLGVPVSTVQGWKQRQTIPQNRMGDILEAAKNYNLELTP | 0.114
HMDISPAAKQRLALIQPLLEKNAEAITDRKLRNAVAKDIANNQNTTVRRVLRLYYRYLATGQVM | 0.158
HMDIVIPIQVKNVSSGEVLDFPSIRAAARDLKFPKTTISLGVRYAGEKAYKGFVMRYRSDDPWPIVQES | 0.103
HMDIYLDEVNRKILHLLSQGIKTRSLREYINLSMSAIEKRKKHMKELFLVEDGKDETLLNEARNKGF | -0.64
HMDIYLTAFKTTSNQVTLNGIARSDLIISEFMRDIRDAKLFGEPVLQVIQNKNLNNVQARVFELVVPL | -0.399
HMDKATMRWEQIEKFLETHPYIMNADVRALFNVSAATANRILATLTTEGKLVKYREGGHWAYKY | -0.217
HMDKELILLWDRVKSKVWQMDIQDSQVANWFQRNYHLTVRLRDFDPPVPPDKFTAEQLASFIKDIERHT | -0.000327
HMDKGMQTMIDNLHKNTGKTLEEWIALVNRANFAKHGEVISFLKEKHGLTHGYANLVAHRLK | -0.361
HMDKINQEAIEDEAGLWLAKIDGRQLAQEEVRELIAWMRRSDFHREYLITLARQWDGMAALNKLATLFP | -1.4
HMDKLFNRQTLGGVELTQKQIEDLNAGKAIFVEGMQRKDGEVFSSYVKLDEATGRPSYTRYNPDSP | 0.0109
HMDKLSYALGLSMGHNFLGSGIKSLNVEDFAKGVEAVYKQEKPEISFDEAKKIINEFFSNLQDEIAE | -1.33
HMDKNLQYADTPKGKLREYIKNLPNGSTVNRQKLAEEFGIKKQSMGTVTEVFQEFPDKNFKFVNP | -0.157
HMDKPVIEDVSFDDLAYMVGERVIIRTHLRSTRDGELKSFNRAGILVSLRNRPGMELEIPRSTVASAQVVW | -0.744
HMDKQEKIHKKKIIILEALKRLLQNDVYSRITVQAVADEAGFSKGGLLHYFPTKEEMYIEFMEY | 0.092
HMDKRYYYRILGLVGEPTRDQIEAAYETRIAKLRSSDYGDDPLYARRKISEVTMAYKVLTGS | 0.139
HMDKSFLQSLHLIALGIVKNQMDPWELVNGWVEYYLKNKDKYIDHPNLKAVAVLKMKGLFIDHFRKS | -2.21
HMDKSHYEELGVSRTATHAEIRRAYRHLMRTLHPDSNDGRVDAVRITKVNEAWNVLSQSSSRNAYDKSQV | -0.0249
HMDKTTIKNEQKKQILIFAEMNLFFKAKDVAELLGLQASRARYLLQELVKDGKIQGIGNNKGRKYQLI | -0.591
HMDKVEQLMQNPVIQEKMSEGDRELLRNASLVVLGRLEDDGSIIQRFVELFGEEAYERLKSELM | -0.865
HMDLDIGSVLQASRGEKKISLRQLAERTGLTASMLSQIERNLVNPSINTLKVIAAALEIPMYKFFMG | -0.583
HMDLEMLEVEDTIKDLLSQHQKINAIKYYRNYMSEQLNVDMGLRQAKDTIDAIGRGATVDLSVGY | -0.783
HMDLIEVLAQDTIKKIYNTYVAYKNKVDVFYVAFSGGKDSIVTLDLVQRTLPHNEFKVLFGDTGM | -0.48

Sequence | soluble fraction (log2)
HMDLIFQKGDLVFSTEHNQRGIFYEYLEQGQAKISIEKQFFVVAARRLQLLTKREVLYPAGYDLDQLFV | -1.05
HMDLKENQHILQISNKGVQMGNVLKDLIIQTLNITNGNQIKAAKLLAISRAKLRYRIEQLGINISGKNI | 0.0187
HMDLKHNQITMRELLRNKQAYLLLYKEFPMFMTPAILQNIRPLTLQQIIQMVRPYISRPKLNMLLEQLENI | 0.22
HMDLMQRVIIVRPVMQGDYLTRAHLGLQTLSRNGGGGFTDIDDLVGRRAKKSLRAGLVVHNRHL | 0.124
HMDLPAEFSKPELETLFKRGKQSGELSLTEVRDALEAAQLPNKKTQTKVLKVLSDNAIHVLMDG | 0.0785
HMDLPDFTSRERDILARVVQGDSNERIAASLGVSVSTVKTHIGNILRKTGQTNRVRLIVWATRHL | -0.37
HMDLPDYYFRVRENGAVVFRVGTENRQRRIEMVEIATVNVKNGNIKPHGEVDLTKADRLAIGEWLAARQAQ | -0.27
HMDLPRQSQYQALVVSYARRAGIDEAEEDLLAAFEVWRMRHNHDLAGGRTARDFILAYLPQYQRHKE | -0.59
HMDLQNIQNQLNTEFAKSDTRIIFWFDDKGEYEDEVSELQLGDVKLHILDGLNWFYSKYLLNEA | -0.467
HMDLRAPKPIKEMGEEYIKLYQYLRKGESENIVMSKMNISLDDYDYMRSEIEDKLSLYNMLDLLRKP | 0.0296
HMDLRVKRTNKMIMEAFIHLVEQKGYDNITVQEIADEAMINRATFYAHFKDKQDLYDHIFKQAI | -1.33
HMDLSPEQAELAAIRGELGIKIDDYALALNIPRDRLTSYLYGRANVPAEVLISARELRYASSA | -0.128
HMDMQNIQKGLSAIEPGRTFSREEYYAAIQNGSEMLLKEDALAYSLRKSLSDGDIVRVSWNQYAIP | -0.909
HMDMTPEEFLAWARHKPFGDPFPKTQTVTFLVPLLGVSRTNIFTWISGKVNPSKTSLLLMEALKRENR | -0.444
HMDNEIEQIVEDLNLTLSSLKYTKNQIESILPLIIKEIDDFKKKEKNISFENLLKLAMNHLDND | -1.16
HMDNEIRIPLPSLQRDGFSIGTREDDGSQLVRIMSAGSFGGMIRSFRLPEGMRIEGAKWEGEIVSIRL | -0.0291
HMDNEVTIAVQVNGKLRDKLIVALDTPNEKIEQLALALPKVIQNTSGLTVRKVIVIPNRLVNIVA | 0.123
HMDNIKRGEMFYISRGGASYSGSEQHSDRPAVVVSNDKNNENSNVVEVVYMTTQPKTDLPTHVTVR | -0.0773
HMDNLKELDEILETYGKKKGYLITILQKAQDAYGYISIDIMNRISEFTGIKVAKIYGVATFYAQFRL | -0.651
HMDNPLSQQEKRILQLISLGKTNQEIADILYLSNGTVRNYISSILNKLSANNRVEAARIAEEHGW | -0.929
HMDNPNVMAQVKSLLASKGLSEQEVKERLKAKGLNIDAMSDAEIAQNRSVIEQTIAELEAEKKKAG | 0.287
HMDNPYEVFIPNSYIGQRLDQTLASLFPQFSRSRLQNWLASGNLLVNGKIVKPKTKILGGEQINILDPYN | 0.17
HMDNTFEEVKEKLLDLLKERPLTPAEVSKRMEEDKNILAQVIQYLLEEEIIKTEDGMLSKVIG | -0.0649
HMDNWYIAFNSFLSQNKLTAKNVSELTGLSKPTIDSYKQGKRKPTDENMQIIKDKLGFNISEILYN | -0.576
HMDPDDEILINIMTKLLTEKQIIIKNKEIFNFLLKRINRTYEEVYNLINKMDKLSLEKKKQLTIPSIKEL | -1.52

Source: the domain aggregation screens of Martell et al. (2025)
